The supplement of paper PMC12764529
± gives the half width of the 95% confidence interval.

Tests used:
[1] = folding stability dG unfold from trypsin proteolysis; higher = more stable
How it was run: (§1)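 Digests were run with trypsin and chymotrypsin at 11 concentrations in threefold dilutions, plus a no-protease condition, on designed mini-proteins in a PA-tagged cDNA display construct. The mini-proteins were under 80 residues, had no cysteine, and were kept only when AlphaFold2 dimer inter-PAE was above 15. After sequencing, Bayesian fitting of the counts gave K50, from which unfolding free energy was derived against a sequence-predicted unfolded-state K50 and a shared folded-state K50, per protease or combined.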

[2] = folding stability dG unfold from chymotrypsin proteolysis; higher = more stable
How it was run: as §1

[3] = folding stability dG unfold (combined trypsin and chymotrypsin); higher = more stable
How it was run: as §1

| Sequence | folding stability dG unfold [1] [kcal/mol] | folding stability dG unfold [2] [kcal/mol] | folding stability dG unfold [3] [kcal/mol] |
| --- | --- | --- | --- |
| SAGGSAGGSAGGSGGSARIEVERLPDGLVLLRIYDPETGEEIEIPMPPDLARSFVFLNGSAGGSAGGSAGGS [r4_494_TrMRF] | 0.471 ± 0.026 | 1.51 ± 0.085 | 1.11 ± 0.045 |
| SAGGSAGGSAGNVTLTRVEVLEGEDDRPLIKATFSFEPGPQVLVFEGDNPDDIEIDVDVGSAGGSAGGSAGG [r17_64_TrMRF] | -0.45 ± 0.096 | 0.0818 ± 0.12 | -0.0491 ± 0.13 |
| SAGGSALPIETPSDGVVPYTDPVTGKTYTVTFRRDEGKTSFRVEEPESSATREVTEPVSVTEAVLTSAGGSA [r15_234_JUSTAS] | -0.219 ± 0.12 | 0.069 ± 0.13 | 0.000309 ± 0.084 |
| SAGMKIVVTLPDGWTATSDPSTGLITITDPKTGEPLLGKIPSSEPNKVTLYDPNNGKPLRELDIDEVEGSAG [r5_761_JUSTAS] | 0.287 ± 0.026 | 0.748 ± 0.023 | 0.581 ± 0.053 |
| SAGGSAGGKVRINWNPNGWIRIKIETPGKKQEIPIPMDSPEDAKDFVDKLAKQFKVKIEEIEPYSAGGSAGG [r6_254_TrROS] | -0.179 ± 0.47 | 0.166 ± 0.3 | 0.194 ± 0.26 |
| SAGMTTVEVTRTFPADVPVTEEDLELAEKEREEIAAELPESYVVTLASVTYERRPDSWTVTATFTITAPSAG [r5_121_JUSTAS] | 1.47 ± 0.017 | 2.11 ± 0.06 | 1.85 ± 0.045 |
| SMTVTLPDGTTVETSVSTEKLPNGTVVTTTTTTFTTPDGTVVPSTTVSVSPAPPTELPFTVLYRPEGSLLSA [r9_1168_JUSTAS] | 0.0778 ± 0.015 | -0.122 ± 0.16 | 0.00633 ± 0.083 |
| SAGGSAGGSAGGMLALIYGKEKPILLSAEEILNNPELLKELEKKGYPIVKIEFFKEEELSAGGSAGGSAGGS [r10_396_TrMRF] | 1.07 ± 0.049 | 0.478 ± 0.15 | 0.817 ± 0.097 |
| SAGGSAGGSAGITIRDPDNGMWIQIEKTPDMFKVEIEMPGNGKKVEFTFPPGQSLDDLKISAGGSAGGSAGG [r11_772_TrROS] | 0.508 ± 0.037 | 0.473 ± 0.085 | 0.571 ± 0.12 |
| SAGGSAGGSAGGKLTIVIEGMSEEEVKALAEALRKAGLEIEVTVVPVEVKEPELPEEEKSAGGSAGGSAGGS [r10_361_TrROS_Hall] | 1.57 ± 0.081 | 2.29 ± 0.053 | 2.04 ± 0.12 |
| SAGGSAGGSAGGSMTTLNLTNMSPEEIEAALKANPGPVTVTTTLPGGEITTKTYTVPPGSAGGSAGGSAGGS [r10_514_JUSTAS] | -0.0189 ± 0.047 | 0.644 ± 0.12 | 0.423 ± 0.083 |
| SAGGVIPPSATITTLKTYPDGTVLTNVTFPDGTPMTVTLTRETLPDGSVVLKFTNPATGEELATFPVSSAGG [r13_527_JUSTAS] | 1.93 ± 0.063 | 2.15 ± 0.062 | 2.15 ± 0.088 |
| SAGGSAGQKIQIERVQWNPEEGYFFIRIRYPGNGREIEHHIRLDNIEIELPPGAKITDIEIYPLPNSAGGSA [r15_959_TrROS] | 1.8 ± 0.079 | 1.83 ± 0.12 | 1.96 ± 0.13 |
| SAGGSAGGSAGGSDRVEVELIFKFPNGFYVVIKWEIDPDEPGKIEMEIAIFDPDGKPIWSAGGSAGGSAGGS [r4_297_TrROS] | 3.35 ± 0.2 | 4.69 ± 0.12 | 4.63 ± 0.19 |
| SAGGSAGGSAGGAVFKTPDGTTLTLLPDGTVVVTEYSPDGVPLRVETRTMTAADIAAAASAGGSAGGSAGGS [r10_874_JUSTAS] | -0.022 ± 0.12 | 1.5 ± 0.088 | 1.01 ± 0.085 |
| SAGGGMPTSIVLPLTVSPENVEEAIAALKAQLEAQGYTLLEVNPVKDGNTWKLRAVFRAPDGTLVTDESAGG [r13_421_JUSTAS] | 3.11 ± 0.079 | 3.313 ± 0.017 | 3.26 ± 0.059 |
| SAGGSAGGSMTWTETVITLKGNGSETTTYKAKVTEDPSSDTVLVTLPDGTPLTIPKSQVTINSSAGGSAGGS [r12_256_JUSTAS] | -0.131 ± 0.18 | 0.668 ± 0.14 | 0.399 ± 0.096 |
| SAGGSAGGSAGDLLKEAVEEAKDSGHPNVPIRFNFPGGTIRITVKVDPKNGKVEIKVEPVSAGGSAGGSAGG [r17_475_TrROS] | 0.674 ± 0.12 | 0.445 ± 0.1 | 0.645 ± 0.29 |
| SSMPTTVTLTNPADSTTTPLPVPSNISVETTTLPDGSTAGTVTVTDPSTGKTTTITFSGPNTLTSTSATSSA [r9_467_JUSTAS] | 1.05 ± 0.03 | 0.398 ± 0.26 | 0.804 ± 0.13 |
| SAGGVPVSVEVDPRGEVTITNPVNGSSLVIPVPPDAEVTVVSLPPSSVTVRVTVGGEERDIVLPPSSVSAGG [r19_309_JUSTAS] | 0.587 ± 0.023 | 0.662 ± 0.034 | 0.621 ± 0.065 |
| SRKISIWIPPDDPMMTPEEIANKLAQQGYPVEIDDVEWNPENGWVVITVEIEEPNGEPIADIEVWIPWNDSA [r9_879_TrROS] | 1.83 ± 0.098 | 1.6 ± 0.057 | 1.65 ± 0.19 |

| Sequence | folding stability dG unfold [1] [kcal/mol] | folding stability dG unfold [2] [kcal/mol] | folding stability dG unfold [3] [kcal/mol] |
| --- | --- | --- | --- |
| SNIRIEVDPPNGVIRVTYTFPGDSLSDIKDEIVEYIQKLGFPIEVDIDKIEPMNNYWRVTAYIKIPPGAISA [r9_347_TrROS] | 3.21 ± 0.095 | 4.56 ± 0.056 | 4.18 ± 0.086 |
| SAGGSAGGMKVTIEKENGKYRIKVEIEKNGKKIEIEIDMSVEELKKELEKKLNIKIKKVEIEPVSAGGSAGG [r6_762_TrROS_Hall] | 1.7 ± 0.2 | 1.03 ± 0.53 | 1.5 ± 0.66 |
| SEKLTVTLTLTVVTTETRVTYDKETGELTVETRTEVRTLTLTVTADSEEEAKRAVQELLDALEKNPELLSSA [r9_77_TrROS_Hall] | 3.8 ± 0.14 | 4.94 ± 0.13 | 4.66 ± 0.15 |
| SAGMPKPLVLPVVLPDDGATVEVVFDPVEKRIEIRVFKPGHRERAREFAEGIAALFEELGYEVEITDDSAGG [r19_354_TrMRF] | 2.3 ± 0.084 | 1.27 ± 0.091 | 1.91 ± 0.12 |
| SAGGSAGGSAGGEMRLRISWNHPNGQPQVIEFPVGDIKEFLKKLGIDNIPPDKLTNIEPYSAGGSAGGSAGG [r7_745_TrROS] | 1.25 ± 0.039 | 1.37 ± 0.092 | 1.36 ± 0.094 |
| SAGGSAGGSMSPSSSYTIEKVSEDPSRGVITLKITYPTGESITLKLSPADEEKAEEEAKKLLESAGGSAGGS [r20_167_JUSTAS] | 1.68 ± 0.04 | 1.63 ± 0.1 | 1.63 ± 0.17 |
| SKGKKYELIVLLFKVEDPEKYPVEKKVSVPKEFIDFLKKKGFKIIEIKTRVIPSSDGSVYVEHVALVEVDSA [r9_465_TrMRF] | 2.62 ± 0.12 | 4.16 ± 0.13 | 3.82 ± 0.13 |
| SAGGSAGGSAGGSKKTITLDIKVNGYLVKVKLNLETNKLEIVEVYKVSPEKKKLSPKDKSAGGSAGGSAGGS [r4_21_TrROS_Hall] | 0.824 ± 0.029 | 2.33 ± 0.068 | 1.93 ± 0.1 |
| SAGGSAGGSAPPPAKVKVITITETRVTYDPDTDELTVETVTLTLVVAPDGHIYVDGRWIPAEDLSAGGSAGG [r6_514_TrROS_Hall] | 2.89 ± 0.064 | 3.68 ± 0.14 | 3.37 ± 0.11 |
| SAGGSAGGSMSVTVVGRVPGLGLVEVVIHRPDEPVVVTVPRSEVEALLAAFPYPDAVVTTRDASAGGSAGGS [r12_23_JUSTAS] | -0.043 ± 0.047 | 0.205 ± 0.028 | 0.151 ± 0.056 |
| SAGGSAGGMIRFDTPEEVEAALKALRAKLPPGATLVIEIEVDGKLVRVEFKDGKITKVEVRELPSAGGSAGG [r6_288_TrROS_Hall] | 3.02 ± 0.16 | 3.67 ± 0.12 | 3.57 ± 0.2 |
| SADPVYYKITITLYIKGDSSSTKTFEIVVPAGDVEKAKEEAIKKIKEETGKPILKVETEVTKVPPEELLSAG [r14_104_JUSTAS] | 3.89 ± 0.4 | 4.35 ± 0.13 | 4.35 ± 0.17 |
| SAKTIPINIWGPLGDMDRMAEEIARMIARKLGLPANLKKIKIKFTEIEPWPDPDGKPRWVRMSIEIKVKSAG [r14_736_TrROS] | 3.55 ± 0.06 | 3.61 ± 0.095 | 3.45 ± 0.19 |
| MKIVEITKIEKKEDGTITITIKIEPVKKGEKLKIRIIHDGKIYEAEIDAESGTITITLPKNVKELKIYIYPS [r1_428_TrROS_Hall] | 3.21 ± 0.25 | 3.46 ± 0.12 | 3.44 ± 0.28 |
| SAMYTLRTISYDPNTGVRKLELTVDPAHPDRPVPEAVTQAVADAYAAQGWSVTVTRHPDGSVVIDVPVPSAG [r14_865_JUSTAS] | 1.84 ± 0.031 | 1.86 ± 0.027 | 1.88 ± 0.022 |
| SAGGSAGGSKKKTIVILVPPGMSVDAIKKKLKELGIKVKIVPAPPVKVKVDEKTNELKVEKVTSAGGSAGGS [r12_80_TrROS_Hall] | 0.874 ± 0.059 | 0.618 ± 0.086 | 0.657 ± 0.15 |
| SAGGSAGGSAGGPPKWVIFIMIEIRPVTVEVYDPKNGEPLMEKPVWVIKIKIFLFKPGDFSAGGSAGGSAGG [r7_573_TrROS] | 3.07 ± 0.081 | 4.82 ± 0.13 | 4.54 ± 0.13 |
| SAGGSMEVEEFETTDPATGKPYRLRFTYDSETGIPVLEVFAPDGTPLATVPVEPGEAEAARERLGASAGGSA [r2_115_JUSTAS] | 0.0239 ± 0.063 | 1.14 ± 0.085 | 0.767 ± 0.058 |
| SAGMPGKVVTVTVPVPPELTRLTVTATAPDGSSSTFTLPPGVATTVTFTSPSSSDLSVTVTFPDGSTTGSAG [r5_664_JUSTAS] | 0.849 ± 0.017 | 1.16 ± 0.052 | 1.07 ± 0.05 |
| SAGEIKIKVEEVDPEKPYVRVTIEIKLEPGQSIEEALKKLLKPGVEEAKIVKVEEENGYLKIEILVRRKSAG [r5_227_TrROS_Hall] | 3.22 ± 0.14 | 4.54 ± 0.28 | 4.01 ± 0.27 |
| SAGGIKIPPGQEIEMPFKVRVGGEPYPFRIEIKILKVNPDNGHFLIKMEIEDPENGQPIAEFTFFIPPSAGG [r13_582_TrROS] | 2.64 ± 0.25 | 4.4 ± 0.23 | 3.35 ± 0.39 |
